The experiment concerns the target RANKL ectodomain (eRANKL, residues 157-316) of rat (rat) (UniProt Q9ESE2). As to the kind of experiment: crystal structure of the complex.

Here are results for one substance from patent US20140371143A1.

Sequence of UniProt Q9ESE2 (Q9ESE2 157-316 limits assumed): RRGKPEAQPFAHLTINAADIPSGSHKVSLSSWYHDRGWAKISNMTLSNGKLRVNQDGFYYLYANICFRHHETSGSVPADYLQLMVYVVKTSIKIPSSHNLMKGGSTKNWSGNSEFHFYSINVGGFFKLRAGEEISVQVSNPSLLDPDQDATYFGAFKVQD

The substance “RANK ectodomain (eRANK, residue 32-201) of rat (receptor)” showed a reduction of solvent accessible surface area on binding of 7680 Å^2; a reduction of solvent accessible surface area on binding, share of the total accessible surface area of unbound receptors and ligands of 15.4%.
